Reference: article PMC6424025, “Human DNA polymerase delta is a pentameric holoenzyme with a dimeric p12 subunit” (Life Science Alliance, 2019)
Where two headings read alike, the source gives them in different places.

What was measured:
PCNA (Homo sapiens) [1] = biological target: PCNA (Homo sapiens) (UniProt P12004); details: cited from earlier work
PCNA (Homo sapiens) [2] = biological target: PCNA (Homo sapiens) (UniProt P12004); details: cited from earlier work; remark: listed apart in the source
[3] = biological target: the molecule itself; assay: cross-linking; 1-5 μg of protein in 20 mM Hepes pH 7.5, 0.5% formaldehyde, 30 min at 25°C, 12% SDS-PAGE, Coomassie
[4] = biological target: the molecule itself; assay: ITC; p12 (10 μM) in the cell, p12 (120 μM) in the syringe, 30°C, 20 mM Hepes pH 7.4, 150 mM NaCl, single-site model; dimer to monomers
[5] = biological target: T1, human PCNA, wild type, purified (human, UniProt P12004 1-261); assay: ITC; p12 (10 μM) in the cell, PCNA (120 μM) in the syringe, 25°C, 20 mM Hepes pH 7.4, 150 mM NaCl, single-site model; p12 taken as a dimer and PCNA as a trimer; details: both partners purified
T1 construct: Proliferating cell nuclear antigen, human; amplified from cDNA of HeLa total RNA; Treated as a trimer in the ITC analysis; also called hPCNA; proliferating cell nuclear antigen; source: E. coli BL21 DE3, purified (expressed as GST fusion, glutathione-sepharose)

[6] = biological target: the molecule itself; assay: native gel or EMSA; 12% native PAGE, 80 V for 5 h at 4°C, 25 mM Tris base, 192 mM glycine, pH 8.8, Coomassie staining; migration compared with carbonic anhydrase or with the mutant

PCNA (Homo sapiens), sequence (P12004 whole entry): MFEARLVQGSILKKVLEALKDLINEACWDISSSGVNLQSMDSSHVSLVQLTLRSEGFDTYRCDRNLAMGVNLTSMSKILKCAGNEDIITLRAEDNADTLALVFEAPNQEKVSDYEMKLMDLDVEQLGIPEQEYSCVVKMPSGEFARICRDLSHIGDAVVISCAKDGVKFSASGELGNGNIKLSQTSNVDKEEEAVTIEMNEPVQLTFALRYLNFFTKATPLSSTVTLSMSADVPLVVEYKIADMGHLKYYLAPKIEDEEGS
T1 sequence (P12004 whole entry, the tested form may be a part): as the sequence (P12004 whole entry) above

## DNA polymerase delta core (from UniProt P28340)
PCNA (Homo sapiens) [1]
  Kd: 73 nM

## DNA polymerase delta holoenzyme (from UniProt P28340)
PCNA (Homo sapiens) [2]
  Kd: 7.1 nM

B1: p12 subunit of human DNA polymerase delta, wild type, purified, GST tag cleaved off (natural protein, UniProt Q9HCU8 1-107, looked up)
chain: MGRKRLITDSYPVVKRREGPAGHSKGELAPELGEEPQPRDEEEAELELLRQFDLAWQYGPCTGITRLQRWCRAKQMGLEPPPEVWQVLKTHPGDPRFQCSLWHLYPL
notes: DNA polymerase delta subunit 4 (p12), human; PCR product from pCOLA-hPold234; also called untagged p12; wild-type p12; source: E. coli BL21 DE3, purified (glutathione-sepharose; GST cleaved by PreScission protease); not shown: GST, N-terminal, cleaved
[3]
  stoichiometry N: 2
[4]
  Kd: ~146 nM
  dH: -1.82 kcal/mol
  stoichiometry N: ~0.6
[5]
  Kd: 10000 nM

B2: p12 L104A, Y105A mutant, purified, GST tag cleaved off (natural protein, human, UniProt Q9HCU8 1-107, looked up)
chain: MGRKRLITDSYPVVKRREGPAGHSKGELAPELGEEPQPRDEEEAELELLRQFDLAWQYGPCTGITRLQRWCRAKQMGLEPPPEVWQVLKTHPGDPRFQCSLWHAAPL
notes: DNA polymerase delta subunit 4 (p12), human; PCR product from pCOLA-hPold234; also called PIP-motif p12 mutant; source: E. coli BL21 DE3, purified (glutathione-sepharose; GST cleaved by PreScission protease); not shown: GST, N-terminal, cleaved
[3]
  stoichiometry N: 2

B3: Cdm1 of Schizosaccharomyces pombe, wild type, purified (natural protein, S. pombe, UniProt O59835 1-160, looked up)
chain: MKKRTTQAKKSGQNTNIRDVFPHVVRSNSSQSHIGKKVSSEQSPTPDVTITTKTLDERIKEDDELSKEVEEAWNQIMAERISEPIHCENITKVEFILHHFDTTARYGPYLGMTRMQRWKRAKNFNLNPPETVGKILMLEEADEENRKRESLFYDLQTIPG
notes: Cdm1, fourth subunit of DNA polymerase delta, S. pombe; 160 aa, 18.6 kD; PCR-amplified from genomic DNA; also called wild-type Cdm1; source: E. coli BL21 DE3, purified (bacterial overexpression from pNA716)
[6]
  binding result: binds
